According to US20240083948:

Legend:
[1] = test system: T1, ZaTa peptide (Ala-Lys-Arg-Val-Lys-Gly-Arg-Thr-Trp-Thr-Leu-Cys-Gly-Thr-Pro-Glu-Tyr)
T1 sequence: AKRVKGRTWTLCGTPEY

[2] = test system: PKAc, full-length, active (catalytic subunit of Protein Kinase A)
[3] = test system: T2, adjacent peptide Gly-Phe-Ala-Lys-Arg-Val-Lys-Gly-Arg-Thr-Trp-Thr-Leu
T2 sequence: GFAKRVKGRTWTL

[4] = target: AKT1 mutant with a deletion in the PH domain, active (UniProt P31749)
[5] = target: AKT1 Ser473Asp mutant, active (UniProt P31749)
AKT1 (PKB alpha), active = AKT1 (PKB alpha), active (UniProt P31749)
Sequence of AKT1 (PKB alpha), active (P31749 whole entry, looked up): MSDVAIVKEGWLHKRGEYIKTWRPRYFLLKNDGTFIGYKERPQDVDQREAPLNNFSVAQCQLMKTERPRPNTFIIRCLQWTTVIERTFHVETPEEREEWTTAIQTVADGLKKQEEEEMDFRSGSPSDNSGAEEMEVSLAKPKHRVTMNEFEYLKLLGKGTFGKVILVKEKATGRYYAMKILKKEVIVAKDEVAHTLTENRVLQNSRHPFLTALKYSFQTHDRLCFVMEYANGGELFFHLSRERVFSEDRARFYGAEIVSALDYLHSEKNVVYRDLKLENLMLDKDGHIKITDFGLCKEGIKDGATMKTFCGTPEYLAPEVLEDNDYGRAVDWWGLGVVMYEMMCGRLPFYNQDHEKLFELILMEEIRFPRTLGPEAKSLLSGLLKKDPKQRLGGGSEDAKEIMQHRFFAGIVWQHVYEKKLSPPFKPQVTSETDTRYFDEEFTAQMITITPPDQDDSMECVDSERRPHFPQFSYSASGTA

Sequence of AKT1 Ser473Asp mutant, active (P31749 whole entry S473D): as the sequence (P31749 whole entry, looked up) above, with S473D counted along it
Sequence of AKT1 mutant with a deletion in the PH domain, active (P31749 whole entry, looked up, stated change not applied, the tested form may be a part): as the sequence (P31749 whole entry, looked up) above

## AKT1 (PKB alpha), active
[1]
  AKT1 kinase assay, phosphorylation level of Ser-9 GSK-3 GST substrate (western blot): The phosphorylation level of Ser-9 GSK-3 GST substrate was significantly reduced after adding the ZaTa peptide to the AKT1 kinase assay
  control kinase reactions that contained the peptide and AKT only: ZaTa peptide itself was not a substrate for AKT
[2]
  PKA kinase assay, phosphorylation level of DARPP-32 at Thr-34: addition of the active AKT to the PKA kinase assay increased the catalytic activity of PKAc
  phosphorylation level of PKAc at Thr-197: the increase in the PKAc catalytic activity was accompanied by an increase in the phosphorylation level of PKAc at Thr-197
[3]
  AKT1 in vitro catalytic activity (incorporation of γ-32P into Ser-21 GSK-3β substrate peptide): the adjacent overlapping peptide was not able to inhibit AKT1

## PKAc, full-length, active (catalytic subunit of Protein Kinase A)
[4]
  AKT kinase assay, catalytic activity of the AKT1 mutant: The decrease in the catalytic activity of AKT by PKAc was also observed with two mutants and active forms of AKT1, one with a deletion in the PH domain
[5]
  AKT kinase assay, catalytic activity of the AKT1 mutant: The decrease in the catalytic activity of AKT by PKAc was also observed with two mutants and active forms of AKT1 ... the other one with a Ser473Asp mutation
AKT1 (PKB alpha), active
  AKT kinase assay, Ser-9 GSK-3 GST fusion protein as substrate: the kinetic activity of AKT was dramatically reduced

## active PKAc purified from bovine tissue
AKT1 (PKB alpha), active
  AKT kinase assay, catalytic activity of AKT: the same inhibitory effect was observed with active PKAc purified from bovine tissue

## human PKAc expressed in Sf9 cells
AKT1 (PKB alpha), active
  AKT kinase assay, catalytic activity of AKT: the same inhibitory effect was observed ... with human PKAc expressed in Sf9 cells
